Measured values taken from the supplement of paper PMC9170038.

How the values were obtained:
[1] = system: MS2 coat protein; assay: apparent KD of MS2 coat protein, switch OFF state (with FMN for OFF switches, without FMN for ON switches); designed switch direction (-1 OFF switch, 1 ON switch): -1; higher = weaker reporter binding; details: FMN input: 0 or 200 uM; Eterna round: R93 (includes R88 designs)
In short: (§1)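 Titrations with SNAP-549-labelled MS2 coat protein ran in twofold steps from 0.7 or 1.5 nM to 3 µM, each step taking 0.8–1.5 h at the start and 10–20 min toward the end. The targets were designed RNA switches transcribed on-chip from Illumina sequencing clusters, held in 100 mM Tris-HCl pH 7.5, 80 mM KCl, 4 mM MgCl2, without or with constant ligand. Apparent KD was taken per design as the median of normalised cluster binding-curve fits.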

[2] = system: MS2 coat protein; assay: apparent KD of MS2 coat protein, switch ON state; designed switch direction (-1 OFF switch, 1 ON switch): -1; higher = weaker reporter binding; details: FMN input: 0 or 200 uM; Eterna round: R93 (includes R88 designs)
In short: as §1

Sequence	apparent KD of MS2 coat protein [1]	apparent KD of MS2 coat protein [2]
AAGAAUGCAGGAUAUACAAAAUAAAAGAAAAGAAAGAAAGAACAUGAGGAUCACCCAUGUAGAAGGGCAAAGAA [Menwadjre Sihathor]	28.2 nM	30 nM
AAGAAUGCAGGAUAUACAUGAGGAUCACCCAUGUAAAAGAAAGAGGGAAAAGAGAAAAGUAGAAGGGCAAAGAA [Cleopatra III]	37.6 nM	26.1 nM
AAGAAUGGAGGAUAUACAUGAGGAUCACCCAUGUAAAAGAAAGAAAAGGGAAAGAAAAGUAGAAGGCCAAAGAA [Sekhaenre/Akhenre Merenptah Siptah]	41 nM	28.5 nM
AAGACGUAAGGAUAUAUUAUGGGACAAUGAAGGAAGAUAAAACAUGAGGAUCACCCAUGUAGAAGGUGCAAAGA [JR_Exclusion2_Sub3]	32.8 nM	40.3 nM
AAGACUACAGGAUAUACAUGAGGAUCACCCAUGUAACUGACGGAUAGAUGACGGAGAAGUAGAAGGGUAGUCCA [Ruby 39]	46.9 nM	36.9 nM
AAGAGACAUGAGGAUCACCCAUGUGAGGAUAUGACGUAAAUAAAGAAAGAAGAAAUCGUCAGAAGGCACACCAA [55%, Disencluded 2, 4]	75.8 nM	48.4 nM
AAGAGGCUAGGAUAUACAUAUCUGAUGACUCAUCCUAAAACACAUGAGGAUCACCCAUGUAGAAGGAGCGAAUG [Anledi]	16.5 nM	19.2 nM
AAGAUGUCAGGAUAUGCUUGUCGUCACAAAAGUGAUGACGAGCAGAAGGGACAUGAGGAUCACCCAUGUAAAGA [JL eternac mod 3]	303 nM	148 nM
AAGCCACAUGAGGAUCACCCAUGUAAGGAUAUGAACGAAAUAAAAUAAAAAUAAAAGUUCAGAAGGUACAAAAA [Mat - Exclusion 1 - Eli mod - D23]	21.9 nM	20.2 nM
AAGGGACAUGAGGAUCACCCAUGUCAGGAUAUGCAAAUAACAAACAACAAACAACAAAGCAGAAGGGACAAAAA [Mat - Exclusion 1 - Eli mod - D53]	24.8 nM	27.9 nM
AAGGGACAUGAGGAUCACCCAUGUGAGGAUAUGCUAUGGAAAAUAAAAAAUAAACAUAGCAGAAGGCAUAAAAA [Mat - Exclusion 1 - Eli mod - D37]	72.3 nM	64.8 nM
AAGGGACAUGAGGAUCACCCAUGUGAGGAUAUGCUAUGGAAAAUAAAAAUAAAACAUAGCAGAAGGCAUAAAAA [Denovo 9]	44.8 nM	60.1 nM
AAGGGACAUGAGGAUCACCCAUGUUAGGAUAUCGGAAAAGGAAAAAAAAAAAAGAAGACGAGAAGGGACACCAA	48.8 nM	59.5 nM
AAGGUACGAGGAUAUACAUAGAUACAGACACAUGUGGAUGUACAUGAGGAUCACCCAUGUAGAAGGCGUAUAUA [AJ 21]	101 nM	64 nM
AAGGUACGAGGAUAUACAUAGAUACAGACACAUGUUCAUGUACAUGAGGAUCACCCAUGUAGAAGGCGUAUAUA [AJ 17]	147 nM	56.7 nM
AAGUAGGUAGGAUAUACAUAGAUACAGAUUCAUGUGGAACUACAUGAGGAUCACCCAUGUAGAAGGACCUAAUA [AJ 40]	126 nM	30.2 nM
AAGUUAUUAGGAUAUACUUGUGCGAUUAAUACGUUGAUAGUACAUGAGGAUCACCCAUGUAGAAGGAAUAAAAA [JR_Exc002_Sub411]	25.9 nM	38.4 nM
AAUAAACAUGAGGAUCACCCAUGUCAGGAUAUGCAUCUAACCUAAUAACAUAAAUACAGCAGAAGGGACUAAUA [JR_Exc001_Sub602]	25 nM	26.8 nM
AAUAAACAUGAGGAUCACCCAUGUGAGGAUAUACAAAUAAAUAAAAAUAAAAUAAAAAGUAGAAGGCACAAUAA [JR_Exc001_Sub001]	27.8 nM	23.5 nM
AAUAAACAUGAGGAUCACCCAUGUGAGGAUAUGGUAUAAUAAGGACAGUAAUGAUAAACCAGAAGGCACAAAUA [JR_Exc001_Sub1102]	34.7 nM	30.5 nM
AAUAACACAGGAUAUACUAAAGAAAUGAAAAGAAAUAAAGAACAUGAGGAUCACCCAUGUAGAAGGGUGAAUAA [Shenshek]	186 nM	204 nM
AAUAAGUCAGGAUAUACUAAAGAAAUGAAAAGGGAUAAAGAACAUGAGGAUCACCCAUGUAGAAGGGACAAUAA [Sakir-Har]	51.6 nM	93.2 nM
AAUACACAUGAGGAUCACCCAUGUAAGGAUAUCGAAAAAAAAAUAAACAAAAAACAAACGAGAAGGUACAAAAA [Exclusion 1 design 3]	33.6 nM	33.2 nM
